± gives the uncertainty stated by the source.
Assay: self-splicing fitness, log relative to wild type (ln ratio); higher = more splicing; Tetrahymena group I intron in knt gene, E. coli kanamycin selection, DiMSum; sequences stand for … in CUCUCU…GGAGGGAAAAGUUAUCAGGCAUGCACCUGGUAGCUAGUCUUUAAACCAAUAGAUUGCAUCGGUUUAAAAGGCAAGACCGUCAAAUUGCGGGAAAGGGGUCAACAGCCGUUCAGUACCAAGUCUCAGGGGAAACUUUGAGAUGGCCUUGCAAAGGGUAUGGUAAUAAGCUGACGGACAUGGUCCUAACCACGCAGCCAAGUCCUAAGUCAACAGAUCUUCUGUUGAUAUGGAUGCAGUUCACAGACUAAAUGUCGGUCGGGGAAGAUGUAUUCUUCUCAUAAGAUAUAGUCGGACCUCUCCUUAAUGGGAGCUAGCGGAUGAAGUGAUGCAACACUGGAGCCGCUGGGAACUAAUUUGUAUGCGAAAGUAUAUUGAUUAGUUUUGGAGUACUCGUGGUCG
Outline: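 Library with all eight P1ex-region intron nucleotides randomised, intron inside the knt kanamycin-resistance gene on pET-22b(+), in E. coli BL21(DE3). Cells grew overnight at 37°C or 30°C on LB agar with or without 25 μg/mL kanamycin (plus 100 μg/mL carbenicillin, 50 μM IPTG, 0.2% rhamnose), in six replicate transformations. Pooled colonies were amplicon-sequenced on Illumina HiSeq 2500. DiMSum fitness is the error-weighted combination of wild-type-normalised replicate fold changes, kanamycin versus none.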

| Sequence | self-splicing fitness (ln) (30 °C) | self-splicing fitness (ln) (37 °C) |
| --- | --- | --- |
| CAUAAGCAAUAUUACGGUAG | -1.06 ± 0.087 | -0.382 ± 0.089 |
| CAUAAGCAAUAUUACGGUAU | -4.64 ± 0.26 | -2.94 ± 0.21 |
| CAUAAGCAAUAUUACGGUCC | -3.2 ± 0.25 | -2.28 ± 0.31 |
| CAUAAGCAAUAUUACGGUGC | -3.51 ± 0.18 | -3.18 ± 0.24 |
| CAUAAGCAAUAUUACGUAUA | -3.21 ± 0.12 | -2.32 ± 0.13 |
| CAUAAGCAAUAUUACGUCGG | -0.598 ± 0.061 | -0.568 ± 0.087 |
| CAUAAGCAAUAUUACGUGCC | -3.1 ± 0.21 | -2.66 ± 0.38 |
| CAUAAGCAAUAUUACGUGCU | -3.19 ± 0.3 | -1.89 ± 0.27 |
| CAUAAGCAAUAUUACGUUUC | -3.35 ± 0.21 | -2.26 ± 0.2 |
| CAUAAGCAAUAUUACGUUUG | -3.3 ± 0.17 | -2.46 ± 0.18 |
| CAUCAGCAAUAUUACGAAAA |  | -2.89 ± 0.28 |
| CAUCAGCAAUAUUACGACCA | -1.38 ± 0.19 | -1.1 ± 0.19 |
| CAUCAGCAAUAUUACGACCG | -0.142 ± 0.086 | 0.366 ± 0.12 |
| CAUCAGCAAUAUUACGACGG | -0.186 ± 0.085 | -0.0315 ± 0.1 |
| CAUCAGCAAUAUUACGAGCA | -2.05 ± 0.23 | -0.921 ± 0.14 |
| CAUCAGCAAUAUUACGCAAU | -4.01 ± 0.24 | -3.15 ± 0.17 |
| CAUCAGCAAUAUUACGCAUG | -2.03 ± 0.11 | -2.23 ± 0.13 |
| CAUCAGCAAUAUUACGCCUC |  | -1.57 ± 0.24 |
| CAUCAGCAAUAUUACGCGGA | -3.61 ± 0.27 | -2.6 ± 0.29 |
| CAUCAGCAAUAUUACGCGUG | -3.13 ± 0.095 | -2.16 ± 0.092 |
| CAUCAGCAAUAUUACGGACC | -3.04 ± 0.24 | -0.899 ± 0.22 |
| CAUCAGCAAUAUUACGGCCA | -2.63 ± 0.28 | -0.947 ± 0.27 |
| CAUCAGCAAUAUUACGGGAA | -2.53 ± 0.21 | -1.68 ± 0.17 |
| CAUCAGCAAUAUUACGUAAG | -0.0494 ± 0.068 | 0.711 ± 0.092 |
| CAUCAGCAAUAUUACGUCGG | -0.265 ± 0.055 | -0.317 ± 0.076 |
| CAUCAGCAAUAUUACGUGAG | -0.345 ± 0.055 | -0.244 ± 0.073 |

| Sequence | self-splicing fitness (ln) (30 °C) | self-splicing fitness (ln) (37 °C) |
| --- | --- | --- |
| CAUGAGCAAUAUUACGACGG | -0.356 ± 0.12 | -0.199 ± 0.17 |
| CAUGAGCAAUAUUACGAGAU | -4.03 ± 0.23 | -1.82 ± 0.28 |
| CAUGAGCAAUAUUACGAGCU | -2.78 ± 0.23 |  |
| CAUGAGCAAUAUUACGAUAG | -1.55 ± 0.088 | -0.709 ± 0.1 |
| CAUGAGCAAUAUUACGAUCA | -2.99 ± 0.15 | -2.24 ± 0.16 |
| CAUGAGCAAUAUUACGCAAG | -3.15 ± 0.13 | -1.69 ± 0.12 |
| CAUGAGCAAUAUUACGCAGG | -3.17 ± 0.19 | -1.51 ± 0.2 |
| CAUGAGCAAUAUUACGCAUG | -3.01 ± 0.2 | -1.18 ± 0.25 |
| CAUGAGCAAUAUUACGCCCG | -1.56 ± 0.18 | -0.89 ± 0.2 |
| CAUGAGCAAUAUUACGCCUA | -2.28 ± 0.24 | -1.75 ± 0.26 |
| CAUGAGCAAUAUUACGCUGU | -3.14 ± 0.23 | -1.14 ± 0.23 |
| CAUGAGCAAUAUUACGGACG | -0.912 ± 0.087 | -0.391 ± 0.11 |
| CAUGAGCAAUAUUACGGCAA | -2.43 ± 0.17 | -2.02 ± 0.28 |
| CAUGAGCAAUAUUACGGCGA | -3.34 ± 0.31 | -2.53 ± 0.25 |
| CAUGAGCAAUAUUACGGGUG | -3.68 ± 0.19 | -2.43 ± 0.13 |
| CAUGAGCAAUAUUACGUAAC | -3.38 ± 0.35 | -2.61 ± 0.31 |
| CAUGAGCAAUAUUACGUAUC | -3.9 ± 0.32 | -3.15 ± 0.25 |
| CAUGAGCAAUAUUACGUCCA | -2.74 ± 0.33 | -2.28 ± 0.34 |
| CAUGAGCAAUAUUACGUUCU | -3.59 ± 0.27 | -3.11 ± 0.26 |
| CAUGAGCAAUAUUACGUUUC | -2.86 ± 0.34 |  |
| CAUUAGCAAUAUUACGAAAG | -0.84 ± 0.12 | -0.567 ± 0.13 |
| CAUUAGCAAUAUUACGAACC | -3.51 ± 0.46 | -1.98 ± 0.34 |
| CAUUAGCAAUAUUACGAAUC | -4.46 ± 0.31 | -2.49 ± 0.18 |
| CAUUAGCAAUAUUACGACCG | 0.0272 ± 0.082 | 0.169 ± 0.1 |
| CAUUAGCAAUAUUACGACGU | -1.47 ± 0.12 | -0.0623 ± 0.14 |
| CAUUAGCAAUAUUACGAUGC |  | -3.61 ± 0.42 |

| Sequence | self-splicing fitness (ln) (30 °C) | self-splicing fitness (ln) (37 °C) |
| --- | --- | --- |
| CAUUAGCAAUAUUACGCACU | -1.26 ± 0.1 | -0.806 ± 0.13 |
| CAUUAGCAAUAUUACGCCCU | -2.38 ± 0.22 | -1.55 ± 0.24 |
| CAUUAGCAAUAUUACGCCGU | -2.04 ± 0.15 | -1.84 ± 0.21 |
| CAUUAGCAAUAUUACGCGAG | -1.52 ± 0.11 | -0.923 ± 0.095 |
| CAUUAGCAAUAUUACGGCGU | -2.25 ± 0.13 | -0.905 ± 0.13 |
| CAUUAGCAAUAUUACGGCUA | -2.88 ± 0.29 | -1.47 ± 0.15 |
| CAUUAGCAAUAUUACGGUGC | -4.19 ± 0.31 | -2.34 ± 0.3 |
| CAUUAGCAAUAUUACGUACC | -3.96 ± 0.21 | -1.28 ± 0.13 |
| CAUUAGCAAUAUUACGUCUA | -2.74 ± 0.17 | -2.2 ± 0.17 |
| CAUUAGCAAUAUUACGUUGA | -3.86 ± 0.37 | -2.65 ± 0.34 |
| CAUUAGCAAUAUUACGUUUG | -2.16 ± 0.1 | -1.51 ± 0.13 |
| CCAAAGCAAUAUUACGAACG | 0.08 ± 0.054 | -0.168 ± 0.071 |
| CCAAAGCAAUAUUACGAAUG | -1.03 ± 0.07 | -0.166 ± 0.092 |
| CCAAAGCAAUAUUACGAGAG | -2.24 ± 0.23 | -1.91 ± 0.2 |
| CCAAAGCAAUAUUACGAUCC | -3.73 ± 0.31 |  |
| CCAAAGCAAUAUUACGAUGA | -2.55 ± 0.12 | -1.34 ± 0.09 |
| CCAAAGCAAUAUUACGAUUG | -1.36 ± 0.06 | -0.695 ± 0.081 |
| CCAAAGCAAUAUUACGCACU | -2.09 ± 0.19 | -2.75 ± 0.23 |
| CCAAAGCAAUAUUACGCAGG | -3.23 ± 0.15 | -3.74 ± 0.27 |
| CCAAAGCAAUAUUACGCAUU | -3.34 ± 0.26 | -3.55 ± 0.46 |
| CCAAAGCAAUAUUACGCGAA | -2.8 ± 0.44 | -2.5 ± 0.28 |
| CCAAAGCAAUAUUACGCUGU | -3.89 ± 0.14 | -2.69 ± 0.15 |
| CCAAAGCAAUAUUACGGACG | -0.4 ± 0.064 | 0.287 ± 0.091 |
| CCAAAGCAAUAUUACGGCUU | -4.45 ± 0.21 | -2.32 ± 0.14 |
| CCAAAGCAAUAUUACGGUUA | -2.46 ± 0.12 | -2.48 ± 0.14 |
